± gives the uncertainty stated by the source.
Assay: protein stability index of a GFP-peptide fusion (yeast GPS) (PSI 1-4); higher = more stable; sorted into four equal gates, so the index is relative within each strain
Procedure, shortened: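 The protein stability index of a peptide was calculated by multiplying its read frequency in each gate by that gate's number and adding the products. The peptides were tiled 17-residue stretches of yeast proteins, fused downstream of GFP on a Cherry-expressing plasmid and carried in yeast as a pooled library. Mid-log cultures in leucine-free medium were sorted into four equal gates by GFP/Cherry ratio, and each gate's plasmids were PCR-amplified and Illumina-sequenced.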

DNVSSQQMHEVRKELRG [RPP0]
protein stability index (doa10∆): 2.4 ± 0.14 | protein stability index (pdr5∆): 2.45 ± 0.18 | protein stability index (ubr1∆): 2.82 ± 0.13

RQPSLHRLSILSHYAKI [RPO31]
protein stability index (doa10∆): 1.74 ± 0.077 | protein stability index (pdr5∆): 2.1 ± 0.071 | protein stability index (san1∆): 1.36 ± 0.12 | protein stability index (ubr1∆): 2.13 ± 0.063

VPPTIAQFQYTLDRNTA [RPL8A]
protein stability index (doa10∆): 1.83 ± 0.06 | protein stability index (pdr5∆): 2.06 ± 0.048 | protein stability index (san1∆): 1.64 ± 0.095 | protein stability index (ubr1∆): 1.68 ± 0.044

RVGVVSILEAGDSDILT [RPL30]
protein stability index (doa10∆): 3.1 ± 0.057 | protein stability index (pdr5∆): 2.97 ± 0.074 | protein stability index (san1∆): 2.98 ± 0.07 | protein stability index (ubr1∆): 3.03 ± 0.058

QRLIFAGKQLEDGRTLS [RPS31]
protein stability index (doa10∆): 2.8 ± 0.12 | protein stability index (pdr5∆): 2.97 ± 0.078 | protein stability index (san1∆): 3.38 ± 0.067 | protein stability index (ubr1∆): 2.27 ± 0.12

ADESKMAKLNECPLDPG [RET1]
protein stability index (doa10∆): 2.64 ± 0.083 | protein stability index (pdr5∆): 2.74 ± 0.095 | protein stability index (san1∆): 2.85 ± 0.082 | protein stability index (ubr1∆): 2.08 ± 0.079

PVDITMMENYQNISPVY [PRP8]
protein stability index (doa10∆): 2.28 ± 0.049 | protein stability index (pdr5∆): 1.99 ± 0.06 | protein stability index (san1∆): 2.2 ± 0.071 | protein stability index (ubr1∆): 2.06 ± 0.038

HLLLGFQVSNVISLGPN [YJL039C/NUP192]
protein stability index (doa10∆): 1.37 ± 0.052 | protein stability index (pdr5∆): 1.75 ± 0.049 | protein stability index (san1∆): 2.08 ± 0.088 | protein stability index (ubr1∆): 1.8 ± 0.042

VLILLHAERDLALAETL [SRP68]
protein stability index (doa10∆): 2.3 ± 0.06 | protein stability index (pdr5∆): 3.04 ± 0.089 | protein stability index (san1∆): 2.96 ± 0.058 | protein stability index (ubr1∆): 3.11 ± 0.057

GQVSMSQFNGSGNGSNP [PGD1]
protein stability index (doa10∆): 3.3 ± 0.11 | protein stability index (pdr5∆): 3.3 ± 0.12 | protein stability index (san1∆): 2.93 ± 0.077 | protein stability index (ubr1∆): 3.2 ± 0.068

DNVQANDPAREKFSSFI [SNF12]
protein stability index (doa10∆): 2.94 ± 0.11 | protein stability index (pdr5∆): 3.01 ± 0.086 | protein stability index (san1∆): 3.1 ± 0.069 | protein stability index (ubr1∆): 3.11 ± 0.043

RIAVLHQKTKTLASLSI [YGL172W/NUP49]
protein stability index (doa10∆): 2.31 ± 0.081 | protein stability index (pdr5∆): 2.25 ± 0.062 | protein stability index (san1∆): 2.26 ± 0.07 | protein stability index (ubr1∆): 2.75 ± 0.066

DLAVCATIIGIISTAIA [ECM29]
protein stability index (doa10∆): 1.95 ± 0.052 | protein stability index (pdr5∆): 2.07 ± 0.043 | protein stability index (san1∆): 1.99 ± 0.054 | protein stability index (ubr1∆): 1.95 ± 0.029

LETDGVNLSEVMTVPGI [RPO21]
protein stability index (doa10∆): 2.75 ± 0.19 | protein stability index (pdr5∆): 3.36 ± 0.21 | protein stability index (san1∆): 3.03 ± 0.13 | protein stability index (ubr1∆): 3.34 ± 0.14

FEIVDREKNSLESGKET [SMC4]
protein stability index (doa10∆): 3.31 ± 0.26 | protein stability index (pdr5∆): 3.16 ± 0.18

KKQAQKQTKLRKEKEKK [SMB1]
protein stability index (doa10∆): 3.04 ± 0.27 | protein stability index (san1∆): 2.46 ± 0.3

RERDITSLFHKFILSGF [RRI2]
protein stability index (doa10∆): 1.71 ± 0.048 | protein stability index (pdr5∆): 2.07 ± 0.045 | protein stability index (san1∆): 2.23 ± 0.063 | protein stability index (ubr1∆): 2.09 ± 0.049

KTLIGLQGIVIWDSQKF [POP4]
protein stability index (doa10∆): 1.7 ± 0.061 | protein stability index (pdr5∆): 1.91 ± 0.051 | protein stability index (san1∆): 2.17 ± 0.071 | protein stability index (ubr1∆): 2.38 ± 0.044

EVNSKKKNKRALPNIEN [BRR2]
protein stability index (doa10∆): 2.9 ± 0.14 | protein stability index (pdr5∆): 3.2 ± 0.096 | protein stability index (san1∆): 3.35 ± 0.088 | protein stability index (ubr1∆): 3.09 ± 0.068

LAKPVFHVGFIAKIKKV [RPO21]
protein stability index (doa10∆): 1.21 ± 0.053 | protein stability index (pdr5∆): 2.15 ± 0.067 | protein stability index (san1∆): 1.78 ± 0.073 | protein stability index (ubr1∆): 2.02 ± 0.06

LLATKQHDSSANEDEEE [CSN12]
protein stability index (doa10∆): 2.85 ± 0.12 | protein stability index (pdr5∆): 3.05 ± 0.089 | protein stability index (san1∆): 2.72 ± 0.086 | protein stability index (ubr1∆): 2.87 ± 0.1

PKVKEIKTVVLVPQLGH [PRP8]
protein stability index (doa10∆): 1.93 ± 0.088 | protein stability index (pdr5∆): 2.25 ± 0.08 | protein stability index (san1∆): 1.94 ± 0.14 | protein stability index (ubr1∆): 2.31 ± 0.048

NTKEEFAAAPNDTSSGT [SNF5]
protein stability index (doa10∆): 2.97 ± 0.067 | protein stability index (pdr5∆): 3.06 ± 0.062 | protein stability index (san1∆): 2.96 ± 0.055 | protein stability index (ubr1∆): 2.9 ± 0.062

SREAVRHFGMGPHKGKA [RPL18A]
protein stability index (doa10∆): 3.22 ± 0.19 | protein stability index (pdr5∆): 2.8 ± 0.12 | protein stability index (san1∆): 3.04 ± 0.098 | protein stability index (ubr1∆): 3.66 ± 0.16

FGTGKRLAKKVARRNAD [RPS24A]
protein stability index (doa10∆): 3.46 ± 0.062 | protein stability index (pdr5∆): 3.31 ± 0.055 | protein stability index (san1∆): 3.1 ± 0.04 | protein stability index (ubr1∆): 3.31 ± 0.039

KGVGRRYSNLVCKKADV [RPS18A]
protein stability index (doa10∆): 3.46 ± 0.2 | protein stability index (pdr5∆): 2.37 ± 0.11 | protein stability index (san1∆): 1.74 ± 0.1 | protein stability index (ubr1∆): 2.49 ± 0.074

FCPIVEEIVSNSSRFSD [YCS4]
protein stability index (doa10∆): 1.97 ± 0.1 | protein stability index (pdr5∆): 1.35 ± 0.14 | protein stability index (san1∆): 1.68 ± 0.21 | protein stability index (ubr1∆): 2.35 ± 0.057

QLPVGFKNMGNTCYLNA [UBP6]
protein stability index (doa10∆): 2.16 ± 0.073 | protein stability index (pdr5∆): 1.76 ± 0.079 | protein stability index (san1∆): 1.48 ± 0.12 | protein stability index (ubr1∆): 1.6 ± 0.084

DSFIEKIIPKDISATQL [ITC1]
protein stability index (doa10∆): 2.96 ± 0.1 | protein stability index (pdr5∆): 3.17 ± 0.12 | protein stability index (san1∆): 3.07 ± 0.086 | protein stability index (ubr1∆): 3.13 ± 0.085

VQGGNAAPSAADIKAVV [RPP2B]
protein stability index (doa10∆): 3.01 ± 0.084 | protein stability index (pdr5∆): 3.34 ± 0.07 | protein stability index (san1∆): 2.88 ± 0.085 | protein stability index (ubr1∆): 3.23 ± 0.075

KLSSAENANADLENKFN [YIL149C/MLP2]
protein stability index (doa10∆): 3.06 ± 0.063 | protein stability index (pdr5∆): 3.31 ± 0.073 | protein stability index (san1∆): 3.07 ± 0.062 | protein stability index (ubr1∆): 3.1 ± 0.042

DDLALPYQHPPNIFPNL [ITC1]
protein stability index (doa10∆): 3.37 ± 0.097 | protein stability index (pdr5∆): 3.43 ± 0.12 | protein stability index (san1∆): 3.43 ± 0.074 | protein stability index (ubr1∆): 3.21 ± 0.046

ATDLAGPANNPNEFMQF [PRP8]
protein stability index (doa10∆): 3.21 ± 0.063 | protein stability index (pdr5∆): 3.35 ± 0.059 | protein stability index (san1∆): 3.23 ± 0.033 | protein stability index (ubr1∆): 3.4 ± 0.05

IHYSWSFILYYRRALQS [YML103C/NUP188]
protein stability index (doa10∆): 1.48 ± 0.064 | protein stability index (pdr5∆): 1.09 ± 0.042 | protein stability index (san1∆): 1.26 ± 0.11 | protein stability index (ubr1∆): 1.12 ± 0.082

PGEFVTAIAHSIREQVH [SNF5]
protein stability index (doa10∆): 2.27 ± 0.08 | protein stability index (pdr5∆): 2.13 ± 0.047 | protein stability index (san1∆): 1.94 ± 0.054 | protein stability index (ubr1∆): 2.29 ± 0.047

QIIVTDGKLEPSTRSNF [YJL039C/NUP192]
protein stability index (doa10∆): 2.38 ± 0.099 | protein stability index (pdr5∆): 3.13 ± 0.13 | protein stability index (san1∆): 2.88 ± 0.11 | protein stability index (ubr1∆): 3.32 ± 0.18

KSSDSNDSNPSFSFSIP [YLR335W/NUP2]
protein stability index (doa10∆): 2.62 ± 0.046 | protein stability index (pdr5∆): 2.53 ± 0.048 | protein stability index (san1∆): 2.31 ± 0.058 | protein stability index (ubr1∆): 2.81 ± 0.034

NNSNTVASSTNFTSPTA [SWI1]
protein stability index (doa10∆): 2.82 ± 0.039 | protein stability index (pdr5∆): 2.67 ± 0.039 | protein stability index (san1∆): 2.86 ± 0.041 | protein stability index (ubr1∆): 2.71 ± 0.033

YKVDNMTRILPQQSRYI [RPN2]
protein stability index (doa10∆): 2.29 ± 0.077 | protein stability index (pdr5∆): 3.03 ± 0.12 | protein stability index (san1∆): 2.5 ± 0.1 | protein stability index (ubr1∆): 2.56 ± 0.099

KTKILEVAIRDVNLDVR [IRR1]
protein stability index (doa10∆): 2.58 ± 0.055 | protein stability index (pdr5∆): 2.12 ± 0.065 | protein stability index (san1∆): 2.38 ± 0.057 | protein stability index (ubr1∆): 2.48 ± 0.052

AELDDCRGVSENVILGQ [RPO21]
protein stability index (doa10∆): 3.64 ± 0.14 | protein stability index (pdr5∆): 3.68 ± 0.16 | protein stability index (san1∆): 3.24 ± 0.07 | protein stability index (ubr1∆): 3.56 ± 0.2

QLIPIILRQRGPGFKFV [SRB4]
protein stability index (doa10∆): 2.55 ± 0.11 | protein stability index (pdr5∆): 1.65 ± 0.073 | protein stability index (san1∆): 1.47 ± 0.19 | protein stability index (ubr1∆): 1.69 ± 0.078

GVAMNPVDHPHGGGNHQ [RPL2A]
protein stability index (doa10∆): 2.9 ± 0.27 | protein stability index (ubr1∆): 3.25 ± 0.14

QDNHHITKVTENLFSKE [YMR129W/POM152]
protein stability index (doa10∆): 2.86 ± 0.059 | protein stability index (pdr5∆): 2.8 ± 0.066 | protein stability index (san1∆): 2.99 ± 0.045 | protein stability index (ubr1∆): 3.1 ± 0.049

KSAEGNNIDQSLILKES [YAR002W/NUP60]
protein stability index (doa10∆): 2.82 ± 0.095 | protein stability index (pdr5∆): 2.86 ± 0.063 | protein stability index (san1∆): 2.61 ± 0.096 | protein stability index (ubr1∆): 3 ± 0.078

KAKIIPGNGKHASENIS [SIR4]
protein stability index (doa10∆): 2.61 ± 0.11 | protein stability index (pdr5∆): 3.04 ± 0.13 | protein stability index (san1∆): 2.67 ± 0.13 | protein stability index (ubr1∆): 2.81 ± 0.12

PYCPIASITGTGSNDRC [YMR129W/POM152]
protein stability index (doa10∆): 1.96 ± 0.099 | protein stability index (pdr5∆): 1.82 ± 0.1 | protein stability index (san1∆): 1.56 ± 0.18 | protein stability index (ubr1∆): 1.64 ± 0.055

KSIQDIVGLATLIVNTD [SRP21]
protein stability index (doa10∆): 2.85 ± 0.054 | protein stability index (pdr5∆): 3.05 ± 0.05 | protein stability index (san1∆): 2.93 ± 0.039 | protein stability index (ubr1∆): 2.97 ± 0.037

VPPVENFPVRQWSIEIV [TAF14]
protein stability index (doa10∆): 3.15 ± 0.064 | protein stability index (pdr5∆): 2.55 ± 0.053 | protein stability index (san1∆): 3.2 ± 0.042 | protein stability index (ubr1∆): 2.82 ± 0.051

DERTKEFEKKLQETLNK [YIL149C/MLP2]
protein stability index (san1∆): 2.88 ± 0.12

LGTLVNQKTSAVAALTE [RPL8A]
protein stability index (doa10∆): 2.37 ± 0.095 | protein stability index (pdr5∆): 2.45 ± 0.082 | protein stability index (san1∆): 2.4 ± 0.15 | protein stability index (ubr1∆): 2.25 ± 0.11

KVSSLKMFIQRILAMCV [YCS4]
protein stability index (doa10∆): 2.64 ± 0.069 | protein stability index (pdr5∆): 2.48 ± 0.061 | protein stability index (san1∆): 2.23 ± 0.063 | protein stability index (ubr1∆): 2.88 ± 0.057

DENPDLLGYTGIPTDKG [PRE8]
protein stability index (doa10∆): 1.99 ± 0.05 | protein stability index (pdr5∆): 2.48 ± 0.063 | protein stability index (san1∆): 2.71 ± 0.05 | protein stability index (ubr1∆): 2.28 ± 0.044
